Columns and labels:
KPLGSDDSLADY peptide = system: T1, KPLGSDDSLADY peptide
T1 sequence: KPLGSDDSLADY

MEK substrate (MEKSBS) = system: T2, MEK substrate (MEKSBS)
T2 sequence: XDPDHDHTGFLTEYVATRW

purified MEK
phosphorylation in an in vitro kinase assay (KPLGSDDSLADY peptide): are both phosphorylated in the presence of purified MEK in an in vitro kinase assay | phosphorylation in an in vitro kinase assay (MEK substrate (MEKSBS)): are both phosphorylated in the presence of purified MEK in an in vitro kinase assay
